This note sets out measurements from publication PMC5493677, “The role of the FliD C-terminal domain in pentamer formation and interaction with FliT” (Scientific Reports, 2017).

B1: StFliD_(401–467) (domain or fragment)
chain: DGIIDNAQDNVNATLKSLTKQYLSVSNSIDETVARYKAQFTQLDTMMSKLNNTSSYLTQQFTAMNKS
notes: FliD of Salmonella Typhimurium, residues 401–467; The eluate was cleaved by TEV protease; also called C-terminal helix of StFliD; source: E. coli BL21(DE3), co-expressed with StFliT 1–94, co-purified (glutathione-Sepharose, TEV, Hitrap Q, Superdex 200)
B2: StFliD_(45–467) (domain or fragment)
chain: TAYGTLKSALEKFQTANTALNKADLFKSTVASSTTEDLKVSTTAGAAAGTYKINVTQLAAAQSLATKTTFATTKEQLGDTSVTSRTIKIEQPGRKEPLEIKLDKGDTSMEAIRDAINDADSGIAASIVKVKENEFQLVLTANSGTDNTMKITVEGDTKLNDLLAYDSTTNTGNMQELVKAENAKLNVNGIDIERQSNTVTDAPQGITLTLTKKVTDATVTVTKDDTKAKEAIKSWVDAYNSLVDTFSSLTKYTAVEPGEEASDKNGALLGDSVVRTIQTGIRAQFANSGSNSAFKTMAEIGITQDGTSGKLKIDDDKLTKVLKDNTAAARELLVGDGKETGITTKIATEVKSYLADDGIIDNAQDNVNATLKSLTKQYLSVSNSIDETVARYKAQFTQLDTMMSKLNNTSSYLTQQFTAMNKS
notes: FliD of Salmonella Typhimurium, residues 45–467
B3: StFliT_(1–94), C-terminus-truncated FliT from Salmonella Typhimurium (domain or fragment)
chain: MTSTVEFINRWQRIALLSQSLLELAQRGEWDLLLQQEVSYLQSIETVMEKQTPPGITRSIQDMVAGYIKQTLDNEQLLKGLLQQRLDELSSLIG
notes: FliT (flagellar export chaperone) of Salmonella Typhimurium, residues 1–94; At the glutathione-Sepharose step of the co-purification the GST tag was still on; it was cut by TEV protease before ion exchange and gel filtration; source: E. coli BL21(DE3); purified alone (glutathione-Sepharose, TEV cleavage, gel filtration) for ITC; co-expressed with StFliD constructs and co-purified for the …
B4: StFliD_(1–300) (domain or fragment)
chain: MASISSLGVGSNLPLDQLLTDLTKNEKGRLTPITKQQSANSAKLTAYGTLKSALEKFQTANTALNKADLFKSTVASSTTEDLKVSTTAGAAAGTYKINVTQLAAAQSLATKTTFATTKEQLGDTSVTSRTIKIEQPGRKEPLEIKLDKGDTSMEAIRDAINDADSGIAASIVKVKENEFQLVLTANSGTDNTMKITVEGDTKLNDLLAYDSTTNTGNMQELVKAENAKLNVNGIDIERQSNTVTDAPQGITLTLTKKVTDATVTVTKDDTKAKEAIKSWVDAYNSLVDTFSSLTKYTAVE
notes: FliD of Salmonella Typhimurium, residues 1–300; Dimer at 100 μM by SEC-MALS; source: cloned into pRSF-duet
B5: StFliD_(1–467), full-length FliD from Salmonella Typhimurium, wild type (natural protein)
chain: MASISSLGVGSNLPLDQLLTDLTKNEKGRLTPITKQQSANSAKLTAYGTLKSALEKFQTANTALNKADLFKSTVASSTTEDLKVSTTAGAAAGTYKINVTQLAAAQSLATKTTFATTKEQLGDTSVTSRTIKIEQPGRKEPLEIKLDKGDTSMEAIRDAINDADSGIAASIVKVKENEFQLVLTANSGTDNTMKITVEGDTKLNDLLAYDSTTNTGNMQELVKAENAKLNVNGIDIERQSNTVTDAPQGITLTLTKKVTDATVTVTKDDTKAKEAIKSWVDAYNSLVDTFSSLTKYTAVEPGEEASDKNGALLGDSVVRTIQTGIRAQFANSGSNSAFKTMAEIGITQDGTSGKLKIDDDKLTKVLKDNTAAARELLVGDGKETGITTKIATEVKSYLADDGIIDNAQDNVNATLKSLTKQYLSVSNSIDETVARYKAQFTQLDTMMSKLNNTSSYLTQQFTAMNKS
notes: FliD (HAP2, flagellar filament capping protein) of Salmonella Typhimurium, residues 1–467; also called StFliD WT; HAP2; source: E. coli BL21(DE3); co-expressed with StFliT 1–94 and co-purified (glutathione-Sepharose, TEV, Hitrap Q, Superdex 200) for the complex

Substitutions are numbered along the chain they refer to.

In data set [1] the target is B3. The experiment in a line: SEC-MALS; co-purified complexes (Fig. 1b), concentration not given; Superdex 200 10/300 GL in buffer A (20 mM Tris-HCl pH 8.0, 200 mM NaCl), 0.4 mL/min. To be noted: both partners purified.
Data set [2] concerns the molecule itself. The experiment in a line: SAXS; purified proteins and co-purified complexes, 1.0–10.0 mg/mL, 4 °C; ab initio envelopes (DAMMIF).
The target in data set [3] is B5. The experiment in a line: ITC; 170 μM StFliT 1–94 injected (2.5 μL, every 200 s) into 26 μM StFliD in the cell; 298 K; buffer A (20 mM Tris-HCl pH 8.0, 200 mM NaCl). To be noted: both partners purified. On the technique in general: ITC needs no label: the signal is the heat of the interaction.
In data set [4] the target is T1, StFliD_(1–467) L443R mutant (Salmonella Typhimurium, UniProt P16328 1-467, L443R).
T1 construct: FliD of Salmonella Typhimurium, residues 1–467, with L443R; Monomer by SEC-MALS; also called StFliD L443R; FliD (L443R)
T1 sequence: B5 chain with L443R
Described as above. To be noted: both partners purified.

Data set [5] concerns the molecule itself. The experiment in a line: SEC-MALS; samples at 100 μM (Fig. 2c); Superdex 200 10/300 GL in buffer A (20 mM Tris-HCl pH 8.0, 200 mM NaCl), 0.4 mL/min. Background: Size exclusion chromatography separates by hydrodynamic size, large species first.
The target of data set [6] is B3. The experiment in a line: SEC-MALS; samples at 10 μM (Fig. 2c); Superdex 200 10/300 GL in buffer A (20 mM Tris-HCl pH 8.0, 200 mM NaCl), 0.4 mL/min. The following applies: both partners purified.
In data set [7] the target is B3. The experiment in a line: SEC-MALS; samples at 100 μM (Fig. 2c); Superdex 200 10/300 GL in buffer A (20 mM Tris-HCl pH 8.0, 200 mM NaCl), 0.4 mL/min. The following applies: both partners purified.

On to B1, for which the “stoichiometry N” value in data set [1] was 1 StFliD per StFliT.
Regarding B2, the binding result in data set [2] was “binds”.
For B3, the Kd in data set [3] was determined as 0.2351 ± 0.0008 µM; in data set [4], 3.01 ± 0.1 µM.
As to B4, in data set [5], the “stoichiometry N” value was 2.
Take B5: the entries for the “stoichiometry N” value in data set [6] and in data set [7] were 1 StFliD per StFliT and 1 StFliD per StFliT (2:2), respectively.

The stoichiometry N is the number of molecules, sites or subunits per partner or assembly. The Kd is the constant that tells how readily two partners part at equilibrium. Read a low Kd as higher affinity.
